Consider two molecules from article PMC5797217, “UFD-2 is an adaptor-assisted E3 ligase targeting unfolded proteins” (Nature Communications, 2018).

Series [1] concerns the molecule itself. Description: crystal structure; crystal form UNC-45_(717), space group P6_(1)22, 3.8 Å; molecules form filaments in the crystal lattice.
The target of series [2] is T1, UNC-45 full-length, His6-tagged (C. elegans, UniProt G5EG62 1-961).
T1 construct: UNC-45, C. elegans, full-length (961 residues by the printed limits of the deletion constructs); also called UNC-45-His6; wild-type, full-length protein; source: E. coli BL21-DE3-RIL, purified (NiNTA, SEC); not shown: His6, C-terminal, kept
T1 sequence (looked up): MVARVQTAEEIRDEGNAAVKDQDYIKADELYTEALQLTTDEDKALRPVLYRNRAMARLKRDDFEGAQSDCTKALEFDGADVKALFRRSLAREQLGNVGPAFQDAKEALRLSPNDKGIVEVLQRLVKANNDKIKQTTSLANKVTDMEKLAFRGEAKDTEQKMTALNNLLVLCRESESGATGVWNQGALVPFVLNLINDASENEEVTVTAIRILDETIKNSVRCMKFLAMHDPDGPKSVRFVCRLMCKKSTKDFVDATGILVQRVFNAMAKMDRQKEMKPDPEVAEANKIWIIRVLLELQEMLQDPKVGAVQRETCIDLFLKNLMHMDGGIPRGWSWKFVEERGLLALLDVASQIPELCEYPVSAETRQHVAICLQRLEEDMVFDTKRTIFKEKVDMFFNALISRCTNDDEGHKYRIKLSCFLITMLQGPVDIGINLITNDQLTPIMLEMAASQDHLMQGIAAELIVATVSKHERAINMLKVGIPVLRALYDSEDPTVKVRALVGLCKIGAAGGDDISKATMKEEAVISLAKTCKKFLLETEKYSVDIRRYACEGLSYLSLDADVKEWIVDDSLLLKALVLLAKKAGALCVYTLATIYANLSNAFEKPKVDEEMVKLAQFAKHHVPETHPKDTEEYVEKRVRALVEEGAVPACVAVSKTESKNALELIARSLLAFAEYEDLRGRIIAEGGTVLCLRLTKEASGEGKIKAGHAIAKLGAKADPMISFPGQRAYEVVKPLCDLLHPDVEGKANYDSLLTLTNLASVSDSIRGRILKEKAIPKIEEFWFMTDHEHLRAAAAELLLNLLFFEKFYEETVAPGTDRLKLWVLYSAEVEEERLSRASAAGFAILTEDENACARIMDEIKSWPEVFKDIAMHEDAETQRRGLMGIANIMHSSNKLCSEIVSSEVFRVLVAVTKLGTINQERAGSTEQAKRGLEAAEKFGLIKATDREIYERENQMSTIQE
Description: pull-down; three proteins: His6-tagged UNC-45 pre-incubated with myosin (MHC-B motor domain) 60 min 27 °C, then with Strep-UFD-2 60 min 30 °C; Strep-Tactin beads; 5 µM protein; 20 mM Tris pH 7.5, 50 mM NaCl; Coomassie. The settings on record: both partners purified.

B1: UNC-45 wild type, crystallised (crystal form UNC-45_(717)) (natural protein, C. elegans, UniProt G5EG62 1-961, looked up)
chain: MVARVQTAEEIRDEGNAAVKDQDYIKADELYTEALQLTTDEDKALRPVLYRNRAMARLKRDDFEGAQSDCTKALEFDGADVKALFRRSLAREQLGNVGPAFQDAKEALRLSPNDKGIVEVLQRLVKANNDKIKQTTSLANKVTDMEKLAFRGEAKDTEQKMTALNNLLVLCRESESGATGVWNQGALVPFVLNLINDASENEEVTVTAIRILDETIKNSVRCMKFLAMHDPDGPKSVRFVCRLMCKKSTKDFVDATGILVQRVFNAMAKMDRQKEMKPDPEVAEANKIWIIRVLLELQEMLQDPKVGAVQRETCIDLFLKNLMHMDGGIPRGWSWKFVEERGLLALLDVASQIPELCEYPVSAETRQHVAICLQRLEEDMVFDTKRTIFKEKVDMFFNALISRCTNDDEGHKYRIKLSCFLITMLQGPVDIGINLITNDQLTPIMLEMAASQDHLMQGIAAELIVATVSKHERAINMLKVGIPVLRALYDSEDPTVKVRALVGLCKIGAAGGDDISKATMKEEAVISLAKTCKKFLLETEKYSVDIRRYACEGLSYLSLDADVKEWIVDDSLLLKALVLLAKKAGALCVYTLATIYANLSNAFEKPKVDEEMVKLAQFAKHHVPETHPKDTEEYVEKRVRALVEEGAVPACVAVSKTESKNALELIARSLLAFAEYEDLRGRIIAEGGTVLCLRLTKEASGEGKIKAGHAIAKLGAKADPMISFPGQRAYEVVKPLCDLLHPDVEGKANYDSLLTLTNLASVSDSIRGRILKEKAIPKIEEFWFMTDHEHLRAAAAELLLNLLFFEKFYEETVAPGTDRLKLWVLYSAEVEEERLSRASAAGFAILTEDENACARIMDEIKSWPEVFKDIAMHEDAETQRRGLMGIANIMHSSNKLCSEIVSSEVFRVLVAVTKLGTINQERAGSTEQAKRGLEAAEKFGLIKATDREIYERENQMSTIQE
notes: UNC-45, C. elegans, wild-type full-length protein used for crystallisation
With B1, in series [1], the binding result is “binds”.

B2: C. elegans MHC-B motor domain (1-790), His6-tagged (domain or fragment, UniProt P02566 1-790, looked up)
chain: MEHEKDPGWQYLRRTREQVLEDQSKPYDSKKNVWIPDPEEGYLAGEITATKGDQVTIVTARGNEVTLKKELVQEMNPPKFEKTEDMSNLSFLNDASVLHNLRSRYAAMLIYTYSGLFCVVINPYKRLPIYTDSCARMFMGKRKTEMPPHLFAVSDEAYRNMLQDHENQSMLITGESGAGKTENTKKVICYFAAVGASQQEGGAEVDPNKKKVTLEDQIVQTNPVLEAFGNAKTVRNNNSSRFGKFIRIHFNKHGRLASCDIEHYLLEKSRVIRQAPGERCYHIFYQIYSDFRPELKKELLLDLPIKDYWFVAQAELIIDGIDDVEEFQLTDEAFDILNFSAVEKQDCYRLMSAHMHMGNMKFKQRPREEQAEPDGTDEAEKASNMYGIGCEEFLKALTKPRVKVGTEWVSKGQNCEQVNWAVGAMAKGLYSRVFNWLVKKCNLTLDQKGIDRDYFIGVLDIAGFEIFDFNSFEQLWINFVNEKLQQFFNHHMFVLEQEEYAREGIQWVFIDFGLDLQACIELIEKPLGIISMLDEECIVPKATDLTLASKLVDQHLGKHPNFEKPKPPKGKQGEAHFAMRHYAGTVRYNCLNWLEKNKDPLNDTVVSAMKQSKGNDLLVEIWQDYTTQEEAAAKAKEGGGGGKKKGKSGSFMTVSMLYRESLNNLMTMLNKTHPHFIRCIIPNEKKQSGMIDAALVLNQLTCNGVLEGIRICRKGFPNRTLHPDFVQRYAILAAKEAKSDDDKKKCAEAIMSKLVNDGSLSEEMFRIGLTKVFFKAGVLAHLEDIRDEKL
notes: Myosin heavy chain B (MHC-B, UNC-54), C. elegans muscle myosin, motor domain residues 1-790, cloned from cDNA into pACEBac1; also called myosin; MHC-B head domain; source: High Five insect cells, purified (NiNTA, Streptactin wash fractions, SEC) or co-purified with UNC-45; not shown: His6, C-terminal, kept
B2: the binding result in series [2] is “binds”.
